# Assay results taken from patent US20250258178A1 (SHIONOGI, published 2025).
# T1: human histidine-rich glycoprotein (HRG), purified from human plasma (human, UniProt P04196 19-525)
# T1 construct: also called human purified HRG; human purified HRG protein
# T1 sequence: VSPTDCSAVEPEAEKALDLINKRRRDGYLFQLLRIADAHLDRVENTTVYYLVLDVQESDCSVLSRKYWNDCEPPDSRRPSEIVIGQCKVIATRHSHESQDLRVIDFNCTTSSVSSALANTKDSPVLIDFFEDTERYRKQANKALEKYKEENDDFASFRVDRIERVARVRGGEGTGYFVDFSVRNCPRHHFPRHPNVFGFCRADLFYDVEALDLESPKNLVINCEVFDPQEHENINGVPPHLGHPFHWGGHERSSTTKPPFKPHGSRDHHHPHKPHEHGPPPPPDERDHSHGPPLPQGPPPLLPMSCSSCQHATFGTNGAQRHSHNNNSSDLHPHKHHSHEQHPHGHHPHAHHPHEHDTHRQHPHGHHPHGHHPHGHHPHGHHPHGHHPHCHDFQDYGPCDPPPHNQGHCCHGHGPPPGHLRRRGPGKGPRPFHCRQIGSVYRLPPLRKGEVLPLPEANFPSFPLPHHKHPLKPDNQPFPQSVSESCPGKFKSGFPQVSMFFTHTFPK
# B1: anti-HRG monoclonal antibody 67-8A-5F (antibody, V domains shown)
# VH: EVQLQESGPGLVKPSQSLSLTCTVTGYSITSDYAWNWIRQFPGNKLEWMGYISYSGSTSYNPSLKSRISITRDTSKNQFFLQLNSVTTEDTATYYCASASYRYAWFAYWGQGTLVTVSA
# VL: DIQMTQTTSSLSASLGDRVTISCRASQDISNYLNWYQQKPDGTVKLLIYYTSRLLSGVPSRFSGSGSGTDYSLTISNLEQEDIATYFCQQGNTLPTFGGGTKLEIK
# notes: Mouse hybridoma monoclonal
# Tests used:
# [1] = target: T1, human histidine-rich glycoprotein …; test: sandwich ELISA, HRG captured by solid phase 6-12A-10B-9G
# Procedure: (§1) The capture antibody solution was dispensed at 25 μL per well into 384-well Maxisorp plates (NUNC), and the plates were incubated at room temperature for 3 hours. The plates were washed twice with 120 μL of washing solution per well (0.05% Tween 20-containing PBS). A blocking solution (1% BSA-containing PBS) was dispensed at 30 μL per well, and the plates were incubated at room temperature for 3 hours. The blocking solution was removed followed by dispensing the standard substance for evaluation at 20 μL per well (n=2), and the plates were incubated at room temperature for 3 hours. After washing the plates four times with the washing solution as described above, the solution of each detector antibody was dispensed at 10 μL per well, followed by dispensing a horseradish peroxidase-streptavidin solution (0.05 μg/mL) at 10 μL per well, and the plates were incubated at room temperature for 1 hour. After washing the plates four times with the washing solution as described above, a chromogenic substrate solution (TMB (3,3′,5,5′-tetramethylbenzidine)) was dispensed at 20 μL per well followed by incubating the plates at room temperature for 10 minutes, then a reaction stop solution 0.5 M H₂SO₄ was added at 20 μL/well, and the absorbance at 450 nm was measured.
# (§2) The results regarding the evaluation of combinations chosen from 21 types of anti-HRG monoclonal antibodies are shown in Table 1. In Table 1, the absorbance at a wavelength of 450 nm of each combination was determined as follows: less than 1.0 OD: −, 1.0 OD or more and less than 2.0 OD: +, 2.0 OD or more and less than 3.0 OD: ++, and 3.0 OD or more: +++. The combinations of antibodies which could construct a sandwich ELISA system having enough level of absorbance change were 86 sets evaluated as ++ or +++ in Table 1.
# [2] = target: T1, human histidine-rich glycoprotein …; test: sandwich ELISA, HRG captured by solid phase 3-4E
# Procedure: as §1, §2
# [3] = target: T1, human histidine-rich glycoprotein …; test: sandwich ELISA, HRG captured by solid phase 81-2C
# Procedure: as §1, §2
# [4] = target: T1, human histidine-rich glycoprotein …; test: sandwich ELISA, HRG captured by solid phase 94-7A-3C-3D
# Procedure: as §1, §2
# [5] = target: T1, human histidine-rich glycoprotein …; test: sandwich ELISA, HRG captured by solid phase 14-6F
# Procedure: as §1, §2
# [6] = target: T1, human histidine-rich glycoprotein …; test: sandwich ELISA, HRG captured by solid phase 69-1A
# Procedure: as §1, §2
# [7] = target: T1, human histidine-rich glycoprotein …; test: sandwich ELISA, HRG captured by solid phase 31-1H
# Procedure: as §1, §2
# [8] = target: T1, human histidine-rich glycoprotein …; test: sandwich ELISA, HRG captured by solid phase 50-6C-2A
# Procedure: as §1, §2
# [9] = target: T1, human histidine-rich glycoprotein …; test: sandwich ELISA, HRG captured by solid phase 13-2G
# Procedure: as §1, §2
# [10] = target: T1, human histidine-rich glycoprotein …; test: sandwich ELISA, HRG captured by solid phase 42-10D
# Procedure: as §1, §2
# [11] = target: T1, human histidine-rich glycoprotein …; test: sandwich ELISA, HRG captured by solid phase 35-3G-10C
# Procedure: as §1, §2
# [12] = target: T1, human histidine-rich glycoprotein …; test: sandwich ELISA, HRG captured by solid phase 67-8A-5F
# Procedure: as §1, §2
# [13] = target: T1, human histidine-rich glycoprotein …; test: sandwich ELISA, HRG captured by solid phase 65-3A
# Procedure: as §1, §2
# [14] = target: T1, human histidine-rich glycoprotein …; test: sandwich ELISA, HRG captured by solid phase 88-2E
# Procedure: as §1, §2
# [15] = target: T1, human histidine-rich glycoprotein …; test: sandwich ELISA, HRG captured by solid phase 40-10G
# Procedure: as §1, §2
# [16] = target: T1, human histidine-rich glycoprotein …; test: sandwich ELISA, HRG captured by solid phase 19-1C
# Procedure: as §1, §2
# [17] = target: T1, human histidine-rich glycoprotein …; test: sandwich ELISA, HRG captured by solid phase 75-2D
# Procedure: as §1, §2
# [18] = target: T1, human histidine-rich glycoprotein …; test: sandwich ELISA, HRG captured by solid phase 93-4C
# Procedure: as §1, §2
# [19] = target: T1, human histidine-rich glycoprotein …; test: sandwich ELISA, HRG captured by solid phase 58-5C
# Procedure: as §1, §2
# [20] = target: T1, human histidine-rich glycoprotein …; test: sandwich ELISA, HRG captured by solid phase 32-4C
# Procedure: as §1, §2
# [21] = target: T1, human histidine-rich glycoprotein …; test: sandwich ELISA, HRG captured by solid phase 9-1F
# Procedure: as §1, §2
binder,measurement,setting,value
B1,absorbance at 450 nm,[1],< 1 OD
same,absorbance at 450 nm (OD450),[2],≥ 3 od
same,absorbance at 450 nm,[3],< 1 OD
same,absorbance at 450 nm (OD450),[4],1 to 2 od
same,absorbance at 450 nm (OD450),[5],2 to 3 od
same,absorbance at 450 nm,[6],< 1 OD
same,absorbance at 450 nm,[7],< 1 OD
same,absorbance at 450 nm,[8],< 1 OD
same,absorbance at 450 nm,[9],< 1 OD
same,absorbance at 450 nm,[10],< 1 OD
same,absorbance at 450 nm,[11],< 1 OD
same,absorbance at 450 nm,[12],< 1 OD
same,absorbance at 450 nm (OD450),[13],1 to 2 od
same,absorbance at 450 nm,[14],< 1 OD
same,absorbance at 450 nm (OD450),[15],1 to 2 od
same,absorbance at 450 nm,[16],< 1 OD
same,absorbance at 450 nm (OD450),[17],≥ 3 od
same,absorbance at 450 nm (OD450),[18],2 to 3 od
same,absorbance at 450 nm (OD450),[19],2 to 3 od
same,absorbance at 450 nm,[20],< 1 OD
same,absorbance at 450 nm,[21],< 1 OD
